{
  "source": "the RNAGym collection of RNA variant scans (doi:10.7554/elife.90254)",
  "parents": {"B1": {"name": "LINE1-mini (parent)", "chain": "GGCAGAGCUCAACACAGCGUGGCAAAGUGGCUGUGGCUAGACUGCC"}},
  "data": [
    {"variants_of": "B1", "assay": "self-cleavage, relative activity (ratio to wild type); higher = more cleavage; in vitro, sequencing; the parent is a self-cleaving ribozyme", "values": [
      {"variant": "G22C A26G", "self-cleavage": 0.87},
      {"variant": "G22C A26C", "self-cleavage": 2.46},
      {"variant": "G22C A26U", "self-cleavage": 0.82},
      {"variant": "G21A U28A", "self-cleavage": 1.94},
      {"variant": "G21A U28C", "self-cleavage": 1.44},
      {"variant": "G21A U28G", "self-cleavage": 1.2},
      {"variant": "G21C A24G", "self-cleavage": 0.44},
      {"variant": "G21C A24U", "self-cleavage": 0.63},
      {"variant": "G21C A24C", "self-cleavage": 0.43},
      {"variant": "G21U A41U", "self-cleavage": 0.9},
      {"variant": "G21U A41C", "self-cleavage": 0.06},
      {"variant": "G21U A41G", "self-cleavage": 0.28},
      {"variant": "G22A C42A", "self-cleavage": 0.35},
      {"variant": "G22A C42G", "self-cleavage": 0.03},
      {"variant": "G22A C42U", "self-cleavage": 0.7},
      {"variant": "G22A C23A", "self-cleavage": 0.42},
      {"variant": "G22A C23U", "self-cleavage": 1.14},
      {"variant": "G22A C23G", "self-cleavage": 0.47},
      {"variant": "G21C U28A", "self-cleavage": 0.3},
      {"variant": "G21C U28G", "self-cleavage": 0.45},
      {"variant": "G21C U28C", "self-cleavage": 1.39},
      {"variant": "G21U G36A", "self-cleavage": 0.27},
      {"variant": "G21U G36U", "self-cleavage": 0.12},
      {"variant": "G21U G36C", "self-cleavage": 0.1},
      {"variant": "G21C C42U", "self-cleavage": 0.36},
      {"variant": "G21C C42A", "self-cleavage": 0.19},
      {"variant": "G22A U32C", "self-cleavage": 1.4},
      {"variant": "G22A U32A", "self-cleavage": 0.07},
      {"variant": "G22A U32G", "self-cleavage": 0.14},
      {"variant": "G21A G33U", "self-cleavage": 0.26},
      {"variant": "G21A G33A", "self-cleavage": 0.08},
      {"variant": "G21A G33C", "self-cleavage": 0.12},
      {"variant": "G22C G36C", "self-cleavage": 0.25},
      {"variant": "G22C G36A", "self-cleavage": 0.05},
      {"variant": "G22C G36U", "self-cleavage": 0.1},
      {"variant": "G21C G22U", "self-cleavage": 0.46},
      {"variant": "G21C G22A", "self-cleavage": 0.48},
      {"variant": "G21C G22C", "self-cleavage": 0.57},
      {"variant": "G21U G27U", "self-cleavage": 0.54},
      {"variant": "G21U G27A", "self-cleavage": 0.45},
      {"variant": "G21U G27C", "self-cleavage": 0.54},
      {"variant": "G21A G44C", "self-cleavage": 0.52},
      {"variant": "G21A G44A", "self-cleavage": 0.98},
      {"variant": "G21A G44U", "self-cleavage": 0.56},
      {"variant": "G21A G30U", "self-cleavage": 2.01},
      {"variant": "G21A G30A", "self-cleavage": 1.73},
      {"variant": "G21A G30C", "self-cleavage": 0.61},
      {"variant": "G22A C46A", "self-cleavage": 1.03},
      {"variant": "G22A C46G", "self-cleavage": 1.22},
      {"variant": "G22A C46U", "self-cleavage": 0.84},
      {"variant": "G22C U34C", "self-cleavage": 0.17},
      {"variant": "G22C U34A", "self-cleavage": 0.09},
      {"variant": "G22C U34G", "self-cleavage": 0.17},
      {"variant": "G21U U28C", "self-cleavage": 0.92},
      {"variant": "G21U U28G", "self-cleavage": 0.52},
      {"variant": "G21U U28A", "self-cleavage": 0.51},
      {"variant": "G21C A25U", "self-cleavage": 1.14},
      {"variant": "G21C A25C", "self-cleavage": 0.85},
      {"variant": "G21C A25G", "self-cleavage": 0.94},
      {"variant": "G21U C31A", "self-cleavage": 0.19},
      {"variant": "G21U C31G", "self-cleavage": 0.08},
      {"variant": "G21U C31U", "self-cleavage": 0.3},
      {"variant": "G21U U32A", "self-cleavage": 0.12},
      {"variant": "G21U U32C", "self-cleavage": 0.68},
      {"variant": "G21U U32G", "self-cleavage": 0.26},
      {"variant": "G22C G33C", "self-cleavage": 0.06},
      {"variant": "G22C G33U", "self-cleavage": 0.06},
      {"variant": "G22C G33A", "self-cleavage": 0.07},
      {"variant": "G22A G33C", "self-cleavage": 0.05},
      {"variant": "G22A G33U", "self-cleavage": 0.22},
      {"variant": "G22A G33A", "self-cleavage": 0.52},
      {"variant": "G22C U32G", "self-cleavage": 0.2},
      {"variant": "G22C U32A", "self-cleavage": 0.04},
      {"variant": "G22C U32C", "self-cleavage": 0.11},
      {"variant": "G21C C31G", "self-cleavage": 0.09},
      {"variant": "G21C C31U", "self-cleavage": 0.3},
      {"variant": "G21C C31A", "self-cleavage": 0.19},
      {"variant": "G21U G30C", "self-cleavage": 2.18},
      {"variant": "G21U G30A", "self-cleavage": 1.81},
      {"variant": "G21U G30U", "self-cleavage": 1},
      {"variant": "G22A A24U", "self-cleavage": 0.75},
      {"variant": "G22A A24C", "self-cleavage": 0.48},
      {"variant": "G22A A24G", "self-cleavage": 1.53},
      {"variant": "G22C G30U", "self-cleavage": 0.53},
      {"variant": "G22C G30A", "self-cleavage": 0.76},
      {"variant": "G22C G30C", "self-cleavage": 1.94},
      {"variant": "G21U G29U", "self-cleavage": 0.55},
      {"variant": "G21U G29A", "self-cleavage": 0.63},
      {"variant": "G21U G29C", "self-cleavage": 0.4},
      {"variant": "G21U A25C", "self-cleavage": 1.44},
      {"variant": "G21U A25G", "self-cleavage": 1.23},
      {"variant": "G21U A25U", "self-cleavage": 1.88},
      {"variant": "G22C G27A", "self-cleavage": 0.75},
      {"variant": "G22C G27C", "self-cleavage": 0.44},
      {"variant": "G22C G27U", "self-cleavage": 0.53},
      {"variant": "G21C U34C", "self-cleavage": 0.19},
      {"variant": "G21C U34G", "self-cleavage": 0.24},
      {"variant": "G21C U34A", "self-cleavage": 0.12},
      {"variant": "G22C G40U", "self-cleavage": 0.14},
      {"variant": "G22C G40A", "self-cleavage": 0.09},
      {"variant": "G22C G40C", "self-cleavage": 0.08},
      {"variant": "G22A G29A", "self-cleavage": 0.27},
      {"variant": "G22A G29U", "self-cleavage": 0.65},
      {"variant": "G22A G29C", "self-cleavage": 0.21},
      {"variant": "G22A U34C", "self-cleavage": 0.87},
      {"variant": "G22A U34G", "self-cleavage": 0.51},
      {"variant": "G22A U34A", "self-cleavage": 0.2},
      {"variant": "G22C C31G", "self-cleavage": 0.08},
      {"variant": "G22C C31U", "self-cleavage": 0.26},
      {"variant": "G22C C31A", "self-cleavage": 0.14},
      {"variant": "G21C C45A", "self-cleavage": 0.49},
      {"variant": "G21C C45U", "self-cleavage": 1.56},
      {"variant": "G21C C45G", "self-cleavage": 0.07},
      {"variant": "G22C G35U", "self-cleavage": 0.15},
      {"variant": "G22C G35A", "self-cleavage": 0.14},
      {"variant": "G22C G35C", "self-cleavage": 0.08},
      {"variant": "G22A A25G", "self-cleavage": 1.23},
      {"variant": "G22A A25U", "self-cleavage": 1.38},
      {"variant": "G22A A25C", "self-cleavage": 0.8},
      {"variant": "G22A G35U", "self-cleavage": 0.14},
      {"variant": "G22A G35C", "self-cleavage": 0.12},
      {"variant": "G22A G35A", "self-cleavage": 0.23},
      {"variant": "G21C U32G", "self-cleavage": 0.23},
      {"variant": "G21C U32C", "self-cleavage": 1.82},
      {"variant": "G21C U32A", "self-cleavage": 0.13},
      {"variant": "G22A U28G", "self-cleavage": 0.67},
      {"variant": "G22A U28A", "self-cleavage": 0.4},
      {"variant": "G22A U28C", "self-cleavage": 0.51},
      {"variant": "G21U U34A", "self-cleavage": 0.12},
      {"variant": "G21U U34C", "self-cleavage": 0.27},
      {"variant": "G21U U34G", "self-cleavage": 0.34},
      {"variant": "G22A G27U", "self-cleavage": 0.75},
      {"variant": "G22A G27A", "self-cleavage": 0.51},
      {"variant": "G22A G27C", "self-cleavage": 0.9},
      {"variant": "G21A G27C", "self-cleavage": 1.22},
      {"variant": "G21A G27U", "self-cleavage": 1.35},
      {"variant": "G21A G27A", "self-cleavage": 1.01},
      {"variant": "G21C G40U", "self-cleavage": 0.15},
      {"variant": "G21C G40C", "self-cleavage": 0.07},
      {"variant": "G21C G40A", "self-cleavage": 0.04},
      {"variant": "G21A U43G", "self-cleavage": 0.14},
      {"variant": "G21A U43C", "self-cleavage": 0.18},
      {"variant": "G21A U43A", "self-cleavage": 0.17},
      {"variant": "G22C C23U", "self-cleavage": 0.64},
      {"variant": "G22C C23A", "self-cleavage": 0.92},
      {"variant": "G22C C23G", "self-cleavage": 0.28},
      {"variant": "G22A G44C", "self-cleavage": 0.23},
      {"variant": "G22A G44U", "self-cleavage": 0.34},
      {"variant": "G22A G44A", "self-cleavage": 0.97},
      {"variant": "G21C C23G", "self-cleavage": 0.53},
      {"variant": "G21C C23U", "self-cleavage": 1.27},
      {"variant": "G21C C23A", "self-cleavage": 0.43},
      {"variant": "G21U A39G", "self-cleavage": 0.08},
      {"variant": "G21U A39C", "self-cleavage": 0.28},
      {"variant": "G21U A39U", "self-cleavage": 0.63},
      {"variant": "G21C A41U", "self-cleavage": 0.5},
      {"variant": "G21C A41C", "self-cleavage": 0.07},
      {"variant": "G21C A41G", "self-cleavage": 0.32},
      {"variant": "G22A G30U", "self-cleavage": 0.96},
      {"variant": "G22A G30A", "self-cleavage": 1.24},
      {"variant": "G21C A39U", "self-cleavage": 0.81},
      {"variant": "G21C A39C", "self-cleavage": 0.07},
      {"variant": "G21C A39G", "self-cleavage": 0.05},
      {"variant": "G22C C37A", "self-cleavage": 0.09},
      {"variant": "G22C C37U", "self-cleavage": 0.02},
      {"variant": "G22C C37G", "self-cleavage": 0.05},
      {"variant": "G21U G40U", "self-cleavage": 0.18}
    ]}
  ]
}
